In the DeepSol protein solubility set:

Experiment: soluble on expression in E. coli; label from the status in PepcDB or PDB records
With “MAPRVITLSPANTELAFAAGITPVGVSSYSDYPPQAQKIEQVSTWQGMNLERIVALKPDLVIAWRGGNAERQVDQLASLGIKVMWVDATSIEQIANALRQLAPWSPQPDKAEQAAQSLLDQYAQLKAQYADKPKKRVFLQFGINPPFTSGKESIQNQVLEVCGGENIFKDSRVPWPQVSREQVLARSPQAIVITGGPDQIPKIKQYWGEQLKIPVIPLTSDWFERASPRIILAAQQLCNALSQVDLEHHHHHH” the “soluble on expression in E. coli” value was “soluble”. With “PKALIVYGSTTGNTEYTAETIARELADAGYEVDSRDAASVEAGGLFEGFDLVLLGCSTWNDDSIELQDDFIPLFDSLEETGAQGRKVACFGCGDSSYEYFCGAVDAIEEKLKNLGAEIVQDGLRIDGDPRAARDDIVGWAHDVRGAI” the “soluble on expression in E. coli” value was “soluble”. With “MGSDKIHHHHHHMHLLFVTSIVPDGALASGYEIANAAIIAALRRAGARVTVIGFTWPGKVTADPENTVVLGEIDVRTESASALRKLAWVRKAMLSGLTFASVKLRAVSEHEVEAALEQAGPFDGYVLNSVQFAGAFEKLFEDKPSIFVAHNVEHLSARENEAAAGGVFQRLLFRREARLLKVVEERLCRRARFVFTLAEEDRAALGVASNDRSAVLPLVTGARAPVRNGPRRIDCDAALIGTWTWQPNRIGLDWFLGKVVPHLRPGFRIRIAGHMPSGVTSAHPGVEFVGRVADARAFVCGAAVIPLISTAGSGVQLKTIETFELGLPSVATSRSLRGIGHRPDNCVVTDDPAGFARALEAAAADIRDVDGGAFYRQQVKALDAAIRYGLSKLGAVRQEVLA” the “soluble on expression in E. coli” value was “not soluble”. In the case of “MSLRGIRLQQPAGLASLSSVALPDPGQPAAGQIRVRLHASSLNFHDLGIVSGQMPTADGRIPMSDGAGVVEAVGEAVSDFAVGDHVVSTFFPQWLDGEPLHAGFATTPGDGVDGYARSAVVAAAQAFTHAPRGYSHAEAATLTTAGVTAWRALVVNGRIKAGDTVLVLGTGGVSIFALQFAKAMGAMVIVTSSSDQKLETARTLGADHCINYRQHTEWAAQVLEITNGRGVDHVVEVGGPGTLAQSIKAARVGGHIALIGVLTGAAGPVPTAEMMGRQQRLQGLVVGSRRHQQELVRALDGLPLRPVIDRSFALEDIAEAFALQHAGGHLGKIVLEFEGHHHHHH”, the “soluble on expression in E. coli” value is reported as “soluble”. For “MTTVLYYLPASPPCRSVLLLAKMIGVELDLKVLNIMEGEQLKPDFVELNPQHCIPTMDDHGLVLWESRVILSYLVSAYGKDENLYPKDFRSRAIVDQRLHFDLGTLYQRVVDYYFPTIHLGAHLDQTKKAKLAEALGWFEAMLKQYQWSAANHFTIADIALCVTVSQIEAFQFDLHPYPRVRAWLLKCKDELEGHGYKEINETGAETLAGLFRSKLKQ”, the “soluble on expression in E. coli” value was “soluble”. With “MVSRSFFLTHTFKDVSKLGEGGSYSSDIEVRHDIPWKIRIFKKEGFLGVNLHCEKEECFETKKWTFQTKFTMKLVAVSDFPVSQHDSDNSFVLKHNFKNISRLVEDERDYSDTEKHYNALWSFKIRKFNEHLGIWLICEKEIWEERRWSINLQYELKLISASGKVRSAQYTNVFGVGSLWGILKFISWNNLEKDYVTNDSIDVEVLVKIIEFTELPCTEKTFVLSHIVKNMSSIEDGWKTFSDTQTRFNIPWKLQIRRQDGFVELLLHCSKQLDESRSWSIKTEYQFKLVSTNGRSVAFYGEKVFEKPVGSGWDKLIRWENWASRCNDEFVFEASVRILNTTGIEDENDVDRFSGFAIPVEGQEYSMEKWLEMAFDH” the “soluble on expression in E. coli” value was “not soluble”. With “SLSAPIRVLVVDDHVLSRRELEVALAAEADIEVVGSAVNSPAAVTLGSESRPDVALVDVEEPHEDGIRAVSAIKRAVSPVRILILATSDDEAHLFGAVRAGAVGYLLKPRPMDELTAAVRSVHNGVSIIGPGVASQVMKEFAAMARSEKSPAMPHLTVRELDVLKLMVGGCANQGISRRLLISENTVKNHIRNILEKLQFSAWEG” the “soluble on expression in E. coli” value was “soluble”. For “MSLKAIFITGAGSGMGREGATLFHANGWRVGAIDRNEDGLAALRVQLGAERLWARAVDVTDKAALEGALADFCAGNVGGGLDMMWNNAGIGEGGWFEDVPYEAAVRVVDVNFKAVLTGAYAALPYLKKAPGSLMFSTSSSSGTYGMPRIAVYSATKHAVKGLTEALSVEWQRHGVRVADVLPGLIDTAILTSTRQHSDEGPYTISAEQIRAAAPKKGMFRLMPSSSVAEAAWRAYQHPTRLHWYVPRSIRWIDRLKGVSPEFVRRHIAKSLATLEPKREGHHHHHH”, the “soluble on expression in E. coli” value was “soluble”. In the case of “MGSDKIHHHHHHMERTNTTTFKFFSLGGSNEVGRSCHILQYKGKTVMLDAGIHPAYQGLASLPFYDEFDLSKVDILLISHFHLDHAASLPYVMQRTNFQGRVFMTHPTKAIYRWLLRDFVRVTSIGSSSSSMGTKDEGLFSDEDLVDSFDKIETVDYHSTVDVNGIKFTAFHAGHVLGAAMFQIEIAGLRVLFTGDYSREVDRHLNSAEVPPLSSNVLIVESTFGTATHEPRLNRERKLTQLIHSTVMRGGRVLLPVFALGRAQEIMLILDEYWSQHADELGGGQVPIFYASNLAKKCMSVFQTYVNMMNDDIRKKFRDSQTNPFIFKNISYLRNLEDFQDFGPSVMLASPGMLQSGLSRDLLERWCPEDKNLVLITGYSIEGTMAKFIMLEPDTIPSINNPEITIPRRCQVEEISFAAHVDFQENLEFIEKISAPNIILVHGEANPMGRLKSALLSNFASLKGTDNEVHVFNPRNCVEVDLEFQGVKVAKAVGNIVNEIYKEENVEIKEEIAAKIEPIKEENEDNLDSQAEKGLVDEEEHKDIVVSGILVSDDKNFELDFLSLSDLREHHPDLSTTILRERQSVRVNCKKELIYWHILQMFGEAEVLQDDDRVTNQEPKVKEESKDNLTNTGKLILQIMGDIKLTIVNTLAVVEWTQDLMNDTVADSIIAILMNVDSAPASVKLSSHSCDDHDHNNVQSNAQGKIDEVERVKQISRLFKEQFGDCFTLFLNKDEYASNKEETITGVVTIGKSTAKIDFNNMKILECNSNPLKGRVESLLNIGGNLVTPLC”, the “soluble on expression in E. coli” value is reported as “not soluble”. In the case of “EEALIKIKQQEIVKNLPANAALVQLKYAGKTTDEPILNNLYKKYQVTANILYGNIEILEKTPVGEMIVILEGAATNIDQALNDLTHSDLTVTVLKRGV”, the “soluble on expression in E. coli” value is reported as “not soluble”. With “MDKQLEAARKFLKDNVRQMVDFSQTAQNRRVPPPPIEKPMPEEAKTIPLPVIGKAKSAGNIDLWSAIGQRESCRFYADEPMSLDELSLLLWATQGVRLKLDAGHALRTVPSAGCRHAFETYLCVLNVESLDKGIYRYLPLEHALLCSHAPEKLESRIVRATLGQRFTGDAAVVFVWTAIPYRMEWRYGLAAHKVIALDAGHVCQNLYLACEAIGAGTCAIAAYDQDEMDRLLDVDGEEEFTIYLAPVGKKG” the “soluble on expression in E. coli” value was “not soluble”. For “MHEITLCQRALELIEQQASAYGAKRVTAVWIKIGAFSCVETSALSFCFDLVCRGTIAEGCKLHLEEQEAECWCEHCQQYVTLLTHRVRRCPQCHSDTLRIVADDGLQIRRIEIDETED”, the “soluble on expression in E. coli” value was “not soluble”. With “MGSDKIHHHHHHMLGRSANGIFWLFRYLERAENSARAIEAGFRLALTRDASDASDEWRSLIVTLGLQNAYEAKYGPGFTGPHVFNFILRDRENPGSVLAMMEMARTNARMVRAGITREVWESVNDGWMKLREALARPVTETRLGDVLDLVRRQSTQVRGAIEGTMLRNEIYNFARLGSFIERADNTARILDVKYYVLLPSVSYVGSSLDNVQWENVLRSLAGERAYRWLNAGRMDPRGIAEFLILDERFPRSLAFCYSKLRSNLASLAREYGGEMHSHEILRDADTQLHTATIEAIFDQGLHEFIGKFIACNTALALQIQRDYRFTE” the “soluble on expression in E. coli” value was “not soluble”. With “MAYWRKWRTSMNLEALPKYYSPKSPKLSDAAPATGSGGLTITDVMAAQGMVQSKAPLGFALFLAKAGVQDPQFAIEGLLNYAMALDNPTLNKLSEEIRLQIIPYLVSFAFADYSRSAASKARCEPCAGTGFHNVLREVVKYSRSGESVIKEEWVKELCQHCHGKGEVSTACRGCKGKGIVLDEKRTRLHGAPVYKICGRCNGNRFSRLPTTLARCHVQKLVPDLTDYQWYKGYADVIDKLVTKCWQEEAYAEVQLRKVTR” the “soluble on expression in E. coli” value was “not soluble”. With “AAKHHFDEIHYLDIVDCNGGDHHKAFATNFNPEINIREITQKGKYWENGRWIETEPQEIHKTLTYPSIGERESYLLYHEELESLVKNFPTIKRARFWMTFGQEYLTHLRVMQNIGMTRIDPIMYNGVEIVPIQFLKAVLPNPGDLGENYTGETSIGCRIRGIRDGKERTYYIWNNCSHEVAYKETGTQG” the “soluble on expression in E. coli” value was “not soluble”. With “MSLSAELLLNVTPSETRVAMIEGGILQEIHIEREAKRGIVGNIYKGKVSRVLPGMQAAFVDIGLDKAAFLHASDIVPHTECVAESEKQQFQVRDISELVRQGQDIVVQVVKDPLGTKGARLTTDITLPSRYLVFMPGASHVGVSQRIESEAERERLKKIVSHYCDEHGGFIIRTAAEGANEKELTQDAAFLKRLWSKVIERRSKYKNRSMLYGELGLAQRILRDFVGTELTKILIDSRQEFENLKEFTSEYVPELTAKLELYHGDKPIFDMYDTENEIQRSLERKVELKSGGYLIIDQTEAMTTIDINTGAFVGRRNLEETIFNTNIEATQAIARQLRLRNLGGIIIIDFIDMASDEHRKRVLTSLETALMKDRVKTNINGFTQLGLVEMTRKRTRESIEHVLCSTCPTCEGRGSVKTVETVCFEILREITRVNRAYDADKFVVYASPAVADTLQGEESHALAELEVFIGKEVRIQAEPLYNQEQFDVVMMEGGSHHHHHH” the “soluble on expression in E. coli” value was “soluble”. In the case of “MSLDLLFSECNDEIDNAKLIMKERRFTASYTFAKFSTGSMLLTKDIVGKSGVSIKRLPTELQRKFLFDDVYLDKEIEKVTIEARKSNPYPQISESSLLFKDALDYMEKTSSDYNLWKLSSILFDPVSYPYKTDNDQVKMALLKKERHCRLTSWIVSQIGPEIEEKIRNSSNEIEQIFLYLLLNDVVRASKLAIESKNGHLSVLISYLGSNDPRIRDLAELQLQKWSTGGCSIDKNISKIYKLLSGSPFEGLFSLKELESEFSWLCLLNLTLCYGQIDEYSLESLVQSHLDKFSLPYDDPIGVIFQLYAANENTEKLYKEVRQRTNALDVQFCWYLIQTLRFNGTRVFSKETSDEATFAFAAQLEFAQLHGHSLFVSCFLNDDKAAEDTIKRLVMREITLLRASTNDHILNRLKIPSQLIFNAQALKDRYEGNYLSEVQNLLLGSSYDLAEMAIVTSLGPRLLLSNNPVQNNELKTLREILNEFPDSERDKWSVSINVFEVYLKLVLDNVETQETIDSLISGMKIFYDQYKHCREVAACCNVMSQEIVSKILEKNEGHHHHHH”, the “soluble on expression in E. coli” value is reported as “not soluble”. For “MSLVTVDQKPNLIRHLHDLSGVWQTDITYIQLTNHRWVYLATVLDPEKRKVLGYKIGDTMTAELATSALQMALDKHRKPLIIHSDMGSQYTSAEFNIKCQNYGLKHSYSLKGHPYDNGRMEAFHSILKREEVYLKAYQTLTEVQAAIGWYINFYNRNRISNVAEGHHHHHH”, the “soluble on expression in E. coli” value was “not soluble”. With “IENYHVEEAENDLTQLANKVAVILENHEDQALARSITWELADNLTSIAIIQDEKNHWYSPNDKNRLSSITVEQIQHDKDLNKALKDHKKVSKRTGLSDTDTDNERLIVGVPYEKDGKKGMVFLSQSLLAVKDTTKHTTR” the “soluble on expression in E. coli” value was “not soluble”. With “MAEMSEKTPELGDALRVGARVLVRRPSETAATGAAVEDCADLVPAQDRGHEWAPVPRWAVALDDGRLVFADTEDLTVNPSPGAPEGEIGKAVEPK” the “soluble on expression in E. coli” value was “not soluble”. With “MEKRNEEHSRKKFIEEQLNALKHEERVLNETRTKLQQQKWHLLQENDKIKEKIRVRDAAAGAGTGTGAPPE” the “soluble on expression in E. coli” value was “not soluble”. For “MTEVKAMTKFYDVTFQELSGRSVVKTEVASDREPFDVWQDACASYSETELNIQINEDTFVTLNRHFVVRIDVKEVDGPVDKQVRRRDELMNVVNTLSNMGL”, the “soluble on expression in E. coli” value was “soluble”. With “MGGSHHHHHHGMASALTDQTYCDRLVQDTPFLTGHGRLSEQQVDRIILQLNRYYPQILTNKEAEKFRNPKASLRVRLCDLLSHLQRSGERDCQEFYRALYIHAQPLHSRLPSRHALQNSDCTELDSGSQSGELSNRGPMSFLAGLGLAVGLALLLYCYPPDPKGLPGTRRVLGFSPVIIDRHVSRYLLAFLADDLGGL” the “soluble on expression in E. coli” value was “not soluble”.
